Results as given in paper PMC9769556.

B1: RecA of Deinococcus radiodurans (DrRecA), purified (natural protein)
chain: MSKDATKEISAPTDAKERSKAIETAMSQIEKAFGKGSIMKLGAESKLDVQVVSTGSLSLDLALGVGGIPRGRITEIYGPESGGKTTLALAIVAQAQKAGGTCAFIDAEHALDPVYARALGVNTDELLVSQPDNGEQALEIMELLVRSGAIDVVVVDSVAALTPRAEIEGDMGDSLPGLQARLMSQALRKLTAILSKTGTAAIFINQVREKIGVMYGNPETTTGGRALKFYASVRLDVRKIGQPTKVGNDAVANTVKIKTVKNKVAAPFKEVELALVYGKGFDQLSDLVGLAADMDIIKKAGSFYSYGDERIGQGKEKTIAYIAERPEMEQEIRDRVMAAIRAGNAGEAPALAPAPAAPEAAEA

Columns and labels:
[1] = test system: DrDprA (Deinococcus radiodurans R1 (ATCC 13939)); assay: EMSA; settings: EMSA: 10 mM Tris-HCl pH 7.5, 50 mM NaCl, 1 mM DTT, 10 min at 37 C, 2 nM 32P probe
[2] = target: DNA processing protein A of Deinococcus radiodurans (DrDprA), purified recombinant wild type (D. radiodurans); assay: SPR; 2.5 uM DrDprA immobilised on a bare gold sensor chip by EDC-NHS chemistry at 20 C (Autolab Esprit); DrRecA 0.5 to 3 uM in the mobile phase, 20 mM Tris pH 7.6, 1 mM MgCl2

Molecule | Kd [1] [µM] | Kd [2] [µM]
167-bp dsDNA | 3.53 | 
167-mer ssDNA | 3.04 | 
B1 |  | 0.293
